Experiments:
[1] = biological target: T1, TL1A expressed on transfected CHO cells (Homo sapiens (Human), UniProt O95150 1-251); assay: flow cytometry, titration of the antibody on TL1A CHO cells, PE anti-human IgG (Fc specific) detection
T1 construct: also called TL1A CHO cells; TL1A expressing CHOs cells
T1 sequence: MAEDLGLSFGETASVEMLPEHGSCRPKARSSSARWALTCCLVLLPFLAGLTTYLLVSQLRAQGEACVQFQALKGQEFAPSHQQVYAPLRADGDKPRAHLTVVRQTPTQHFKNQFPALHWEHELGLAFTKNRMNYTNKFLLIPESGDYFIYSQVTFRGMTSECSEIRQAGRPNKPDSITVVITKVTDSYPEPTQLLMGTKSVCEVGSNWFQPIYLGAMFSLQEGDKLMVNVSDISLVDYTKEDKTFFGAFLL
Method: (§1) Dilutions of TL1A antibody were incubated with 10⁵ TL1A CHO cells in 100 ul FACS buffer for 1 hr. Cells were washed two times with FACS buffer and antibody binding was detected by staining with PE anti human […] antibody and evaluated by FACS.
(§2) FACS assays were used to verify that antibodies of the disclosure are binding to native TL1A expressed on cells. Briefly, dilutions of antibody in PBS 1% BSA plus 0.5% sodium azide (FACS buffer) were incubated with transfected CHO cells expressing TL1A (10⁵ cells) for 30-60 minutes at 4 C. Cells were washed twice by centrifugation, aspiration of supernatant, and addition of fresh FACS buffer. Antibody binding to TL1A on cells was detected by incubating the cells in PE (Phycoerythrin) labeled goat anti-human IgG (Fc specific) antibody for 30 min at 4C, washing the cells 2× as above, and analyzing by FACS (FIG. 1).

[2] = biological target: T1, TL1A expressed on transfected CHO cells; assay: FACS titration on TL1A CHO cells, detection with PE anti-human IgG (Fc specific); the box prints no unit, the axis is IgG (nM)
Method: as §1, §2

Hu-TL1A-His = biological target: T2, Hu-TL1A-His (Homo sapiens, UniProt O95150); assay: SPR (Biacore), 10A4.F7 captured on a protein G surface, Hu-TL1A-His as analyte at 250, 200, 150, 100 and 50n
T2 construct: recombinant, His-tagged; also called Hu-TL1A-His antigen (Lot#50182AS151)
T2 sequence (ligand chain, looked up): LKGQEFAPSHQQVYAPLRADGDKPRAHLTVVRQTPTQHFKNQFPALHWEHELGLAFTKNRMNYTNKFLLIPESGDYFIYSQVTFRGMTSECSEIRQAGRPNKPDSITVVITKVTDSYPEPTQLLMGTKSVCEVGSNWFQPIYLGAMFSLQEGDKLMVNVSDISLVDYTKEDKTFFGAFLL
Method: Protein G chip (CM5) was made by coating it […] using acetate buffer (pH2.9). 10A4.F7 mab (7.5 ug/mL, 12 uL) was captured at 10 uL/min flow rate on Protein G surface. Hu-TL1A-His antigen (Lot#50182AS151) at multiple concentrations (250, 200, 150, 100 & 50n) were flowed over captured mab for 5 min at 25 ul/min and allowed to dissociate for 7.5 min. Protein G surface was regenerated with 10 uL of 50 mM NaOH and 5 uL of 25 mM HCL at 100 uL/min flow rate. Data was analyzed by using Biaevaluation 3.1. (FIG. 3)

[3] = biological target: T3, soluble TL1A-SH6 protein (his tagged) (Homo sapiens (Human), UniProt O95150 57-251, limits assumed); assay: FACS competition: TL1A SH6 at 200 ng/ml pre-incubated with dilutions of 10A4.F7, then added to hDR3 CHO cells, PE anti 6xHis detection
T3 construct: also called TL1A SH6 antigen; not shown: His tag (detected with anti 6xHis antibody)
T3 sequence: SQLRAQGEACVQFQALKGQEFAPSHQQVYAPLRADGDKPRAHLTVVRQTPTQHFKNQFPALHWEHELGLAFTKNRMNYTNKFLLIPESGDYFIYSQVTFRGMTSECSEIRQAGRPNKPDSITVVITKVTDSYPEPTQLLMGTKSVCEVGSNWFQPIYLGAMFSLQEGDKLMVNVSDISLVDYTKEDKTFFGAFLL
Method: (§3) TL1A SH6 at 200 ng/ml (50 ul) was incubated with dilutions of 10A4.F7 (50 ul) antibody or control IgG1 antibody (all reagents in FACS buffer). The mixture was incubated for 30 minutes and then added to 10⁵ hDR3 CHO cells in 100 ul of FACS buffer and incubated for 1 hr. Cells were washed twice in FACS buffer and TL1A binding to DR3 CHO cells was detected by staining cells with PE anti 6×His antibody (R&D systems) and evaluated by FACS.
(§4) Identification of anti-TL1A antibodies that block TL1A binding to DR3 were also done by FACS by using soluble TL1A-SH6 protein (his tagged) binding to hDR3 expressed on CHO cells (DR3 CHO). Anti-TL1A or control antibodies were incubated with TL1A SH6 antigen at 0.1-0.5 ug/ml for 30 minutes in FACS buffer and then hDR3 CHO cells were added to the antibody TL1A mix and incubated for 30 minutes. Cells were washed and TL1A binding to hDR3 CHO cells was detected with PE anti-His antibody followed by FACS. Blocking antibodies prevent TL1A SH6 from binding to hDR3 CHO cells (FIG. 2).

[4] = biological target: T3, soluble TL1A-SH6 protein (his tagged); assay: FACS, inhibition of the binding of TL1A SH6 (200 ng/ml) to hDR3 CHO cells, detection with PE anti-6xHis; the box prints no unit, the axis is Log nM
Method: as §3, §4

EC50 [1]: 0.4 nM | EC50 [2]: 0.407 nM | Kd (Hu-TL1A-His): 0.38 nM | koff (Hu-TL1A-His): 2.9e-05 s⁻¹ | kon (Hu-TL1A-His): 75000 M⁻¹ s⁻¹ | IC50 [3]: 0.524 nM | IC50 [4]: 0.525 nM
B1: monoclonal antibody 10A4.F7 (antibody, V domains shown)
VH: QLQLQESGPGLVKPSETLSLTCTVSGGSISSRSYYWGWIRQPPGKGLEWIGSIYYNGRTYYNPSLKSRVTISVDTSKNQFSLKLSSVTAADTAVYYCAREDYGDYGAFDIWGQGTMVTVSS
VL: AIQLTQSPSSLSASVGDRVTITCRASQGISSALAWYQQKPGKAPKLLIYDASSLESGVPSRFSGSGSGTDFTLTISSLQPEDFATYYCQQFNSYPLTFGGGTKVEIK
notes: Hybridoma subclone of parental clone 10A4 (KM mouse, human IgG kappa); also called TL1A 2596.10A4.F7

Source: patent US20190135928A1 (Bristol-Myers Squibb, published 2019)
